Data published in article doi:10.1101/2023.02.23.529735 (bioRxiv, 2023).

Legend:
FRET or BRET [1] = target: the molecule itself; experiment: FRET or BRET
FRET or BRET [2] = target: the molecule itself; experiment: FRET or BRET; remark: listed apart in the source

Protein	FRET/Donor ratio, after a 6 min heat shock at 42 °C (FRET or BRET [1])	FRET/Donor ratio, exponentially growing cells (FRET or BRET [1])	FRET/Donor ratio, spheroplasts returned from 880 mOsm to 220 mOsm (FRET or BRET [1])	FRET ratio (acceptor/donor) in foci, no additive (FRET or BRET [2])	FRET ratio (acceptor/donor) in the solution outside the foci, no additive (FRET or BRET [2])
H-NS-VC (Histone-like Nucleoid Structuring protein H-NS fused at its C-terminus to the mVenus-mCherry VC domain) (natural protein, E. coli, UniProt P0ACF8 1-137, looked up) MGSEALKILNNIRTLRAQARECTLETLEEMLEKLEVVVNERREEESAAAAEVEERTRKLQQYREMLIADGIDPNELLNSLAAVKSGTKAKRAQRPAKYSYVDENGETKTWTGQGRTPAVIKKAMDEQGKSLDDFLIKQ	0.162	0.105	0.181	0.07	0.082
H-NS86-VC (H-NS amino acids 1-86 fused at the C-terminus to the mVenus-mCherry VC domain) (domain or fragment, E. coli, UniProt P0ACF8 1-86, looked up) MVSEALKILNNIRTLRAQARECTLETLEEMLEKLEVVVNERREEESAAAAEVEERTRKLQQYREMLIADGIDPNELLNSLAAVKSGT	–	0.132	–	0.073	0.068
H-NS64-VC (H-NS amino acids 1-64 fused at the C-terminus to the mVenus-mCherry VC domain) (domain or fragment, E. coli, UniProt P0ACF8 1-64, looked up) MVSEALKILNNIRTLRAQARECTLETLEEMLEKLEVVVNERREEESAAAAEVEERTRKLQQYREM	–	0.126	–	–	–
